Test results from patent US20230265151A1, “GIP/GLP1 CO-AGONIST COMPOUNDS” (priority 2020, published 2023).
*1 amine or outer side, *2 acyl side, *3 side chain or, on linkers, in order; H or OH if unused. Where no end group is shown, it is not given here. Side-chain parts run from the residue outwards. [ ]: non-standard residue; d: D form. The star is where a group is joined. αMePhe(2-F) = C[C@](N)(Cc1ccccc1F)C(=O)O; γGlu = O=C(O)[C@H](CCC(=O)[*:2])N[*:1]; C14 diacid = O=C(O)CCCCCCCCCCCCC(=O)*; αMeY = C[C@](N)(Cc1ccc(O)cc1)C(=O)O; αMeL = CC(C)C[C@](C)(N)C(=O)O; Orn = NCCC[C@H](N)C(=O)O; AEEA = NCCOCCOCC(=O)O; Aib = CC(C)(N)C(=O)O

Experiments:
Test in all cases: cell-based or functional assay
[1] = target: human glucagon receptor (human) (UniProt P47871)
[2] = target: T1, human GIP receptor (human) (UniProt P48546)
T1 sequence (looked up): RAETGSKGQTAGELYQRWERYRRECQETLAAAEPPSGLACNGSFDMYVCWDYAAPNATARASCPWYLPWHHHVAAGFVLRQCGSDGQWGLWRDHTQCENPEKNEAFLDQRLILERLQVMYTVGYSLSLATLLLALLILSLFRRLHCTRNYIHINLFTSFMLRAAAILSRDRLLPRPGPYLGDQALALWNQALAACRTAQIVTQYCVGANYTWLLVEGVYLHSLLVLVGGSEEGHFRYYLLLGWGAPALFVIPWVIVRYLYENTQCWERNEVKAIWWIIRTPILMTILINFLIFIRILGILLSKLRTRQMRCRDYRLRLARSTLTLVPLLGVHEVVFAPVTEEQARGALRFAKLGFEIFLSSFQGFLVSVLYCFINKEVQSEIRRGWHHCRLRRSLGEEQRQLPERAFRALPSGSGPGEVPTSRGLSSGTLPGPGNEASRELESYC

hGLP-1R = hGLP-1R (Homo sapiens, UniProt P43220)
human glucagon receptor [3] = target: human glucagon receptor (human, UniProt P47871 26-477)
human GLP-1 receptor [4] = target: human GLP-1 receptor (human, UniProt P43220 24-463)
human GIP receptor [5] = target: T2, human GIP receptor (human, UniProt P48546 22-466)
T2 sequence (looked up): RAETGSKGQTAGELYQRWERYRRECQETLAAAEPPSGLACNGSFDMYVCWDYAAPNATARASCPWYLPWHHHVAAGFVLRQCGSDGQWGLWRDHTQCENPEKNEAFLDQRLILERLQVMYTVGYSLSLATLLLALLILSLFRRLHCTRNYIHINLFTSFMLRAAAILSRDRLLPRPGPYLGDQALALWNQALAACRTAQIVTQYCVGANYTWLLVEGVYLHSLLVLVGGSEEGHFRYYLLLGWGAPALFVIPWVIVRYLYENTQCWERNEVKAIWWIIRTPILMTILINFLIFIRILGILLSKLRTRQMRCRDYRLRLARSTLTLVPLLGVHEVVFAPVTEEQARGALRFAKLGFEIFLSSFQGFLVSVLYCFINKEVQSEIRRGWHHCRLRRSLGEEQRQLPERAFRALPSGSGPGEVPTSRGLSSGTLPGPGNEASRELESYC

human glucagon receptor [6] = target: human glucagon receptor (human, UniProt P47871 26-477); remark: listed apart in the source
Target sequence in this assay (P47871 26-477): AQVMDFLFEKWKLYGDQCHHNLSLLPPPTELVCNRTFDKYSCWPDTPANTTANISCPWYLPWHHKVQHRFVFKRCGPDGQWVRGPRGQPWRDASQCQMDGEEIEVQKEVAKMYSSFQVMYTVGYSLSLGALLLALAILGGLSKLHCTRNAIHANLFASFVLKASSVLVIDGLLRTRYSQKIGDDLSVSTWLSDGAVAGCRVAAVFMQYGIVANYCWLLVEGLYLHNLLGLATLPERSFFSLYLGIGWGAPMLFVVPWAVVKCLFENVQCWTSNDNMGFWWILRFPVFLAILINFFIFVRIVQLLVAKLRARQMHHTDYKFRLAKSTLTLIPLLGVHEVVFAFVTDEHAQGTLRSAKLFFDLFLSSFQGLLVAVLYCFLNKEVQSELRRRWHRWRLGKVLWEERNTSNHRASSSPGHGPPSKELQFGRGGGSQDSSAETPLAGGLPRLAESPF

human GLP-1 receptor [7] = target: human GLP-1 receptor (human, UniProt P43220 24-463); remark: listed apart in the source
human GIP receptor [8] = target: T3, human GIP receptor (human, UniProt P48546 22-466); remark: listed apart in the source
T3 sequence (looked up): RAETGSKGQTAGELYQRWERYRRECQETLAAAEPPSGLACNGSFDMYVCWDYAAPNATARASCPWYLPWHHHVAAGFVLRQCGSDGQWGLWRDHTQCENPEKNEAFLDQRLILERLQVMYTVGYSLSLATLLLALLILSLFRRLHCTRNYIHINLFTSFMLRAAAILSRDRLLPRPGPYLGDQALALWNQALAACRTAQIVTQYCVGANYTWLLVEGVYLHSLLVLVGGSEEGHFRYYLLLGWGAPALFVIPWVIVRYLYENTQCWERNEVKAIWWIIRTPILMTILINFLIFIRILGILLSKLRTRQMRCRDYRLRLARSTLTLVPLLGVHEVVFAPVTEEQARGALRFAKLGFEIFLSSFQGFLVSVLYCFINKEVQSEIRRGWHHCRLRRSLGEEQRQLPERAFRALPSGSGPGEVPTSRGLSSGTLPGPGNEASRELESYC

Binder | cAMP EC50 (1.0% HSA) (human glucagon receptor [6]) [µM] | cAMP EC50 (1.0% HSA) (human GLP-1 receptor [7]) [nM] | cAMP Emax (1.0% HSA) (human GLP-1 receptor [7]) [%] | cAMP EC50 (1.0% HSA) (human GIP receptor [8]) [nM] | cAMP Emax (1.0% HSA) (human GIP receptor [8]) [%] | other results
Y[Aib]EGT[αMePhe(2-F)]TSDV[Aib]I[αMeL]LD[Orn]K([AEEA-AEEA-γGlu-C14 diacid])AQ[Aib][Orn]FI[dE][αMeY]LIK([AEEA-AEEA-γGlu-C14 diacid])GGPSSGAPPPS-NH2 [Example 350] |  |  |  |  |  | cAMP EC50 [1]: > 9.95 µM; cAMP EC50 [2]: 0.0288 nM; cAMP Emax [2]: 101%; cAMP EC50 (hGLP-1R): 0.202 nM; cAMP Emax (hGLP-1R): 95.9%; cAMP EC50 (1.0% HSA) (human glucagon receptor [3]): > 9.95 µM; cAMP EC50 (1.0% HSA) (human GLP-1 receptor [4]): 6.4 nM; cAMP Emax (1.0% HSA) (human GLP-1 receptor [4]): 91.4%; cAMP EC50 (1.0% HSA) (human GIP receptor [5]): 5.82 nM
YXEGTXTSDYXIXLDXIAQXXFIKXLIKGGPSSGAPPPS (Y-Aib-EGT-αMeF(2F)-TSDY-Aib-I-αMeL-LD-Orn-IAQ-Aib-Orn-FIK((2-[2-(2-Amino-ethoxy)-ethoxy]-acetyl)2-(γ-Glu)-(10-(4-carboxyphenoxy)decanoyl))-αMeY-LIK((2-[2-(2-Amino-ethoxy)-ethoxy]-acetyl)2-(γ-Glu)-(10-(4-carboxyphenoxy)decanoyl))GGPSSGAPPPS-NH2) [Example 355] | > 9.95 | 11.3 | 109 | 1.81 |  | 
YXEGTXTSDYXIXLDXQAQXEFIKXLIKGGPSSGAPPPS (Y-Aib-EGT-αMeF(2F)-TSDY-Aib-I-αMeL-LD-Orn-QAQ-Aib-EFIK((2-[2-(2-Amino-ethoxy)-ethoxy]-acetyl)2-(γ-Glu)-CO-(CH2)12-CO2H)-αMeY-LIK((2-[2-(2-Amino-ethoxy)-ethoxy]-acetyl)2-(γ-Glu)-CO-(CH2)12-CO2H)GGPSSGAPPPS-NH2) [Example 412] | > 9.95 | 18.3 |  | 1.57 | 87.5 | 
YXEGTXTSDYXIXLDXQAQXEFIKXLIKGGPSSGAPPPS (Y-Aib-EGT-αMeF(2F)-TSDY-Aib-I-αMeL-LD-Orn-QAQ-Aib-EFIK((2-[2-(2-Amino-ethoxy)-ethoxy]-acetyl)2-(γ-Glu)-(10-(4-carboxyphenoxy)decanoyl))-αMeY-LIK((2-[2-(2-Amino-ethoxy)-ethoxy]-acetyl)2-(γ-Glu)-(10-(4-carboxyphenoxy)decanoyl))GGPSSGAPPPS-NH2) [Example 402] | > 9.95 | 13.5 |  | 1.11 | 84.5 | 
YXEGTXTSDYXIXLDXIAQXEFIKXLIKGGPSSGAPPPS (Y-Aib-EGT-αMeF(2F)-TSDY-Aib-I-αMeL-LD-Orn-IAQ-Aib-EFIK((2-[2-(2-Amino-ethoxy)-ethoxy]-acetyl)2-(γ-Glu)-(2-[2-(2-Amino-ethoxy)-ethoxy]-acetyl)-CO-(CH2)12-CO2H)-αMeY-LIK((2-[2-(2-Amino-ethoxy)-ethoxy]-acetyl)2-(γ-Glu)-(2-[2-(2-Amino-ethoxy)-ethoxy]-acetyl)-CO-(CH2)12-CO2H)GGPSSGAPPPS-NH2) [Example 363] | > 9.95 | 14.3 |  | 0.976 |  | 
YXEGTXTSDYXIXLDXIAQXEFIKXLIKGGPSSGAPPPS (Y-Aib-EGT-αMeF(2F)-TSDY-Aib-I-αMeL-LD-Orn-IAQ-Aib-EFIK((2-[2-(2-Amino-ethoxy)-ethoxy]-acetyl)-(γ-Glu)-(10-(4-carboxyphenoxy)decanoyl))-αMeY-LIK((2-[2-(2-Amino-ethoxy)-ethoxy]-acetyl)-(γ-Glu)-(10-(4-carboxyphenoxy)decanoyl))GGPSSGAPPPS-NH2) [Example 375] | > 9.95 | 56.1 |  | 4.68 |  | 
YXEGTXTSDYXIXLDXQAQXXFIKXLIKGGPSSGAPPPS (Y-Aib-EGT-αMeF(2F)-TSDY-Aib-I-αMeL-LD-Orn-QAQ-Aib-Orn-FIK((2-[2-(2-Amino-ethoxy)-ethoxy]-acetyl)2-(γ-Glu)-CO-(CH2)12-CO2H)-αMeY-LIK((2-[2-(2-Amino-ethoxy)-ethoxy]-acetyl)2-(γ-Glu)-CO-(CH2)12-CO2H)GGPSSGAPPPS-NH2) [Example 401] | > 9.95 | 5.39 | 107 | 0.434 | 83 | 
YXEGTXTSDXXGXLDXQAQXXFIKXLIKGGPSSGAPPPS (Y-Aib-EGT-αMeF(2F)-TSD-4Pal-Aib-G-αMeL-LD-Orn-QAQ-Aib-Orn-FIK((2-[2-(2-Amino-ethoxy)-ethoxy]-acetyl)2-(γ-Glu)-CO-(CH2)12-CO2H)-αMeY-LIK((2-[2-(2-Amino-ethoxy)-ethoxy]-acetyl)2-(γ-Glu)-CO-(CH2)12-CO2H)GGPSSGAPPPS-NH2) [Example 441] | > 9.95 | 5.75 | 111 | 1.38 | 83.8 | 
YXEGTXTSDYXIXLDXIAQXEFIKXLIKGGPSSGAPPPS (Y-Aib-EGT-αMeF(2F)-TSDY-Aib-I-αMeL-LD-Orn-IAQ-Aib-EFIK((2-[2-(2-Amino-ethoxy)-ethoxy]-acetyl)-(γ-Glu)-(2-[2-(2-Amino-ethoxy)-ethoxy]-acetyl)-CO-(CH2)12-CO2H)-αMeY-LIK((2-[2-(2-Amino-ethoxy)-ethoxy]-acetyl)-(γ-Glu)-(2-[2-(2-Amino-ethoxy)-ethoxy]-acetyl)-CO-(CH2)12-CO2H)GGPSSGAPPPS-NH2) [Example 365] | > 9.95 | 22.3 | 91 | 1.93 |  | 
YXEGTXTSDYXIXLDXIAQXEFIKXLIKGGPSSGAPPPS (Y-Aib-EGT-αMeF(2F)-TSDY-Aib-I-αMeL-LD-Orn-IAQ-Aib-EFIK((2-[2-(2-Amino-ethoxy)-ethoxy]-acetyl)-(γ-Glu)-(2-[2-(2-Amino-ethoxy)-ethoxy]-acetyl)2-CO-(CH2)12-CO2H)-αMeY-LIK((2-[2-(2-Amino-ethoxy)-ethoxy]-acetyl)-(γ-Glu)-(2-[2-(2-Amino-ethoxy)-ethoxy]-acetyl)2-CO-(CH2)12-CO2H)GGPSSGAPPPS-NH2) [Example 364] | > 9.95 | 13 |  | 0.895 |  | 
YXEGTXTSDXXIXLDXIAQXKFIXXLIEGGPSSGAPPPSK (Y-Aib-EGT-αMeF(2F)-TSD-4Pal-Aib-I-αMeL-LD-Orn-IAQ-Aib-K((2-[2-(2-Amino-ethoxy)-ethoxy]-acetyl)-(γ-Glu)-CO-(CH2)12-CO2H)FI-(D-Glu)-αMeY-LIEGGPSSGAPPPSK((2-[2-(2-Amino-ethoxy)-ethoxy]-acetyl)-(γ-Glu)-CO-(CH2)12-CO2H)-NH2) [Example 341] |  |  |  |  |  | cAMP EC50 [1]: > 9.95 µM; cAMP EC50 [2]: 0.0127 nM; cAMP Emax [2]: 91.4%; cAMP EC50 (hGLP-1R): 0.329 nM; cAMP Emax (hGLP-1R): 99.9%; cAMP EC50 (1.0% HSA) (human glucagon receptor [3]): > 9.95 µM; cAMP EC50 (1.0% HSA) (human GLP-1 receptor [4]): 95.8 nM; cAMP Emax (1.0% HSA) (human GLP-1 receptor [4]): 113%; cAMP EC50 (1.0% HSA) (human GIP receptor [5]): 5.74 nM; cAMP Emax (1.0% HSA) (human GIP receptor [5]): 83.6%
